Assay results as given in patent US20250109177A1, “EVOLVED PROTEIN DEGRONS” (The Broad Institute, Inc., priority 2022, published 2025).
Values belong to the binder of their own block, whether it stands above or below them. Where no end group is shown, it is not given here.

Molecular target: CRBN of HEK293T cells, with PT-179 (human) (UniProt Q96SW2)
Experiment: cell-based or functional assay

Sequence of CRBN of HEK293T cells, with PT-179 (human) (Q96SW2 whole entry): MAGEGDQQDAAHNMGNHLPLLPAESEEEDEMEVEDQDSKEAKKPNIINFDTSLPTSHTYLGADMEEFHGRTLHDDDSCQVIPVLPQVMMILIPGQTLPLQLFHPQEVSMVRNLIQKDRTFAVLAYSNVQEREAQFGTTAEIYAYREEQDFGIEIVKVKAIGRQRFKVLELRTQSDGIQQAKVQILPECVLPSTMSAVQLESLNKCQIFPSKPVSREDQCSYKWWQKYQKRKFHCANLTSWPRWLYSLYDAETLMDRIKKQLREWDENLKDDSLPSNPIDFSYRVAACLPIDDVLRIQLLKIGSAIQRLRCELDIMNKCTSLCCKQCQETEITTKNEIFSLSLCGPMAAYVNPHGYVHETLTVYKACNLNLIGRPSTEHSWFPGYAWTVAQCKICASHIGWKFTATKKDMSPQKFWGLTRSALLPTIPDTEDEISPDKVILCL

DC50 of PT-179-induced degradation of degron-tagged eGFP in HEK293T cells: 14 nM
B1: SD36-tagged eGFP (degron fused to the N-terminus of eGFP) (designed binder, not shown: large carriers)
chain: FNVLMVHKRSHTGELLLFCPICGFTCRQKGNLLRHINLHTGEKLFKYHLYNYACQRRDAL-eGFP
modifications: cysteine pairing not given here

DC50 of PT-179-induced degradation of degron-tagged eGFP in HEK293T cells: 5 nM
Binder: LLLFCPICGFTCRQKGNLLRHINLHTGEKLFKYHLY-eGFP (designed binder, not shown: large carriers, cysteine pairing not given here) [SD40-eGFP (degron fused to the N-terminus of eGFP)]
